# Reference: publication doi:10.1101/2020.04.27.064493
# pKd: −log10 of the molar value.
# Target: human DNMT1 fragment (residues 351-1600) (human) (UniProt P26358)
# Test: ITC
row,pKd,Substance
1,7.77,H3_(1-24)K9me3Ub2: H3 (1-24) K9me3 K18C/K23C peptide carrying two ubiquitin(G76C) through dichloroacetone linkage (from UniProt P68431;P0CG48) (complex)
2,7.04,H3_(1-24)Ub2: H3 (1-24) K18C/K23C peptide carrying two ubiquitin(G76C) through dichloroacetone linkage (from UniProt P68431;P0CG48) (complex)
